Laboratory results: patent publication US8257714B2, “Compositions and methods for immunotherapy of cancer and infectious diseases” (priority 2003, dated 2012)
Marks after values point to notes of the source that are not given here.

Columns and labels:
S-180 tumor = test: Murine S-180 tumor model; type: in vivo, BALB/c mice; settings: GM-CSF alone, 20 ng/mouse/day
Description: In a preferred embodiment, The S-180 cell line (ATCC CCL 8, batch F4805) is chosen as the tumor model because the same line is capable of growing both in animals and in culture (in both serum-containing and serum-free conditions). Tumors are established in mice (BALB/c) by injection of cell suspensions obtained from tissue culture. Approximately […] to 3×10^6 cells are injected intra-peritoneally per mouse. The tumor developed as multiple solid nodules at multiple sites within the peritoneal cavity and cause death in most of the animals within 10 to 15 days. In addition to monitoring animal survival, their condition is qualitatively assessed as tumor growth progressed and used to generate a tumor index as described in the following paragraph.
To establish an estimate of drug activity in tumor model experiments, an index can be developed that combines observational examination of the animals as well as their survival status. […]
The S-180 cell line (ATCC CCL 8, batch F4805) was chosen as the tumor model because the same line was capable of growing both in animals and in culture (in both serum-containing and serum-free conditions). […] In addition to monitoring animal survival, their condition was qualitatively assessed as tumor growth progressed and used to generate a tumor index. […]

[1] = Stability of E1 in human serum albumin; type: physicochemical; settings: for loss of activity: in the presence of HSA
Text: Higher temperature studies also indicate remarkable stability.

[2] = system: influenza virus A/NWS/33 (HINI); test: Influenza infection in mice; type: in vivo, BALB/c mice; settings: for Mean Day to Death ± SD: mice dying before day 21; for decline in arterial oxygen saturation: days 3-11
Text: Specific pathogen-free female BALB/c mice were infected intranasally with an LD90 dose of influenza virus A/NWS/33 (HINI). […] Placebo treated mice received bovine serum albumin in phosphate-buffered saline. Mice were observed daily for death.

[3] = Experimental autoimmune encephalomyelitis (EAE) model; type: in vivo, SJL mice
Description: Treatments were given daily for 5 days. Linomide is a drug that is known to inhibit EAE and is used as a positive control. […] Severity of EAE is measured by means of the EAE score which starts at […] and increases to a score of 5 when death occurs. For ethical reasons mice are sacrificed when a score of 4 is reached.

[4] = system: Mycobacterium tuberculosis Erdman strain; test: Tuberculosis in mice; type: in vivo; settings: 0.1, 1.0 or 10.0 ng i.p. days 1-5; day 0, 21 and 42
Description: Groups of mice were exposed to Mycobacterium tuberculosis Erdman strain (M.tb) by inhalation on day 0. […] A control group of mice received vehicle only. On day 0, 21 and 42 the colony forming units (cfu) of M.tb in the lung were determined.

[5] = 100 ng/day i.p., schedule 0, 3, 6
[6] = 100 ng/day i.p., schedule −2, 0, 3, 6
[7] = 1,000 ng/day i.p., schedule 0, 3, 6

Molecule | survivorship versus sham injections (S-180 tumor) | loss in activity ([1]; 1 μg/mL, HSA 1, 5 or 10% w/v, 4° C., 4, 11, 25, 39 and 54 days, preliminary) | storage time without loss of activity (DC assay) ([1]; 1 μg/ml with 3% HSA, 4° C.) | loss of activity ([1]; 2 hours 70° C.) | loss of activity ([1]; 6 hours at 55° C.) | loss of activity ([1]; 41 days at 37° C.) | Survive/Total [2, 5] | Mean Day to Death ± SD [2, 5] | Survive/Total [2, 6] | Mean Day to Death ± SD [2, 6] | decline in arterial oxygen saturation ([2]; 1,000 ng) | Survive/Total [2, 7] | Mean Day to Death ± SD [2, 7] | decline in arterial oxygen saturation ([2]; 10,000 ng) | Survive/Total ([2]; 10,000 ng/day i.p., schedule 0, 3, 6, P < 0.05) | Mean Day to Death ± SD ([2]; 10,000 ng/day i.p., schedule 0, 3, 6) | Day 15 EAE Score ± SD ([3]; 0.1 μg i.p. daily for 5 days from day 10) | Day 15 EAE Score ± SD ([3]; 1.0 μg i.p. daily for 5 days from day 10) | Day 15 EAE Score ± SD ([3]; 10.0 μg i.p. daily for 5 days from day 10) | cfu of M.tb in the lung versus control group [4]
GM-CSF: granulocyte macrophage-colony stimulating factor | followed similar survivorship curves | – | – | – | – | – | – | – | – | – | – | – | – | – | – | – | – | – | – | –
ARP E1: recombinant E. tenella ARP from E. coli clone E1 (ATCC PTA-6120), SEQ ID NO:28 (protein, listed as Eimeria tenella) MGEEADTQAWDTSVREWLVDTGRVFAGGVASIADGCRLFGAAVEGEGNAWEELVKTNYQIEVPQEDGTSISVDCDEAETLRAVVDGRAPNGVYIGGTKYKLAEVKRDFTFNDQNYDVAILGKNKGGGFLIKTPNENVVIALYDEEKEQNKADALTTALNFAEYLYQGGF | – | no loss in activity | at least 55 weeks | No loss of activity | No loss of activity | No loss of activity | 2/10 | 12.1 ± 1.6 days | 0/10 | 12.3 ± 1.2 days | statistically significant reduction | 3/10 | 12.7 ± 2.7 days | statistically significant reduction | 5/10* | 12.0 ± 1.4 days | 2.7 ± 1.3 | 1.5 ± 1.6 | 1.1 ± 1.5 | no statistically significant difference
